From patent US20220025025A1 (IBEX BIOSCIENCES, published 2022)

Molecular target: T1, filamin-A (human, UniProt P21333 2-2647)
T1 construct: whole, on cells; Endogenous filamin-A of human cell lines; No purified filamin-A was used; also called FLNA; FLNa
Assay: flow cytometry, surface staining of SKNAS (human neuroblastoma) cells, 2 µg primary antibody
Experimental: B411 surface staining on several different cell types was conducted. Cells were plated at a concentration of 0.5-1.0 million cells per well, and incubated overnight. Cells were then lifted from the wells, washed, and resuspended in flow cytometry media with 2 μg of primary antibody for 1 hour on ice. Cells were washed and incubated with the secondary antibody (5 μg/ml) for 30 minutes on ice. Cells were washed again and analyzed by flow cytometry.

T1 sequence (P21333 2-2647): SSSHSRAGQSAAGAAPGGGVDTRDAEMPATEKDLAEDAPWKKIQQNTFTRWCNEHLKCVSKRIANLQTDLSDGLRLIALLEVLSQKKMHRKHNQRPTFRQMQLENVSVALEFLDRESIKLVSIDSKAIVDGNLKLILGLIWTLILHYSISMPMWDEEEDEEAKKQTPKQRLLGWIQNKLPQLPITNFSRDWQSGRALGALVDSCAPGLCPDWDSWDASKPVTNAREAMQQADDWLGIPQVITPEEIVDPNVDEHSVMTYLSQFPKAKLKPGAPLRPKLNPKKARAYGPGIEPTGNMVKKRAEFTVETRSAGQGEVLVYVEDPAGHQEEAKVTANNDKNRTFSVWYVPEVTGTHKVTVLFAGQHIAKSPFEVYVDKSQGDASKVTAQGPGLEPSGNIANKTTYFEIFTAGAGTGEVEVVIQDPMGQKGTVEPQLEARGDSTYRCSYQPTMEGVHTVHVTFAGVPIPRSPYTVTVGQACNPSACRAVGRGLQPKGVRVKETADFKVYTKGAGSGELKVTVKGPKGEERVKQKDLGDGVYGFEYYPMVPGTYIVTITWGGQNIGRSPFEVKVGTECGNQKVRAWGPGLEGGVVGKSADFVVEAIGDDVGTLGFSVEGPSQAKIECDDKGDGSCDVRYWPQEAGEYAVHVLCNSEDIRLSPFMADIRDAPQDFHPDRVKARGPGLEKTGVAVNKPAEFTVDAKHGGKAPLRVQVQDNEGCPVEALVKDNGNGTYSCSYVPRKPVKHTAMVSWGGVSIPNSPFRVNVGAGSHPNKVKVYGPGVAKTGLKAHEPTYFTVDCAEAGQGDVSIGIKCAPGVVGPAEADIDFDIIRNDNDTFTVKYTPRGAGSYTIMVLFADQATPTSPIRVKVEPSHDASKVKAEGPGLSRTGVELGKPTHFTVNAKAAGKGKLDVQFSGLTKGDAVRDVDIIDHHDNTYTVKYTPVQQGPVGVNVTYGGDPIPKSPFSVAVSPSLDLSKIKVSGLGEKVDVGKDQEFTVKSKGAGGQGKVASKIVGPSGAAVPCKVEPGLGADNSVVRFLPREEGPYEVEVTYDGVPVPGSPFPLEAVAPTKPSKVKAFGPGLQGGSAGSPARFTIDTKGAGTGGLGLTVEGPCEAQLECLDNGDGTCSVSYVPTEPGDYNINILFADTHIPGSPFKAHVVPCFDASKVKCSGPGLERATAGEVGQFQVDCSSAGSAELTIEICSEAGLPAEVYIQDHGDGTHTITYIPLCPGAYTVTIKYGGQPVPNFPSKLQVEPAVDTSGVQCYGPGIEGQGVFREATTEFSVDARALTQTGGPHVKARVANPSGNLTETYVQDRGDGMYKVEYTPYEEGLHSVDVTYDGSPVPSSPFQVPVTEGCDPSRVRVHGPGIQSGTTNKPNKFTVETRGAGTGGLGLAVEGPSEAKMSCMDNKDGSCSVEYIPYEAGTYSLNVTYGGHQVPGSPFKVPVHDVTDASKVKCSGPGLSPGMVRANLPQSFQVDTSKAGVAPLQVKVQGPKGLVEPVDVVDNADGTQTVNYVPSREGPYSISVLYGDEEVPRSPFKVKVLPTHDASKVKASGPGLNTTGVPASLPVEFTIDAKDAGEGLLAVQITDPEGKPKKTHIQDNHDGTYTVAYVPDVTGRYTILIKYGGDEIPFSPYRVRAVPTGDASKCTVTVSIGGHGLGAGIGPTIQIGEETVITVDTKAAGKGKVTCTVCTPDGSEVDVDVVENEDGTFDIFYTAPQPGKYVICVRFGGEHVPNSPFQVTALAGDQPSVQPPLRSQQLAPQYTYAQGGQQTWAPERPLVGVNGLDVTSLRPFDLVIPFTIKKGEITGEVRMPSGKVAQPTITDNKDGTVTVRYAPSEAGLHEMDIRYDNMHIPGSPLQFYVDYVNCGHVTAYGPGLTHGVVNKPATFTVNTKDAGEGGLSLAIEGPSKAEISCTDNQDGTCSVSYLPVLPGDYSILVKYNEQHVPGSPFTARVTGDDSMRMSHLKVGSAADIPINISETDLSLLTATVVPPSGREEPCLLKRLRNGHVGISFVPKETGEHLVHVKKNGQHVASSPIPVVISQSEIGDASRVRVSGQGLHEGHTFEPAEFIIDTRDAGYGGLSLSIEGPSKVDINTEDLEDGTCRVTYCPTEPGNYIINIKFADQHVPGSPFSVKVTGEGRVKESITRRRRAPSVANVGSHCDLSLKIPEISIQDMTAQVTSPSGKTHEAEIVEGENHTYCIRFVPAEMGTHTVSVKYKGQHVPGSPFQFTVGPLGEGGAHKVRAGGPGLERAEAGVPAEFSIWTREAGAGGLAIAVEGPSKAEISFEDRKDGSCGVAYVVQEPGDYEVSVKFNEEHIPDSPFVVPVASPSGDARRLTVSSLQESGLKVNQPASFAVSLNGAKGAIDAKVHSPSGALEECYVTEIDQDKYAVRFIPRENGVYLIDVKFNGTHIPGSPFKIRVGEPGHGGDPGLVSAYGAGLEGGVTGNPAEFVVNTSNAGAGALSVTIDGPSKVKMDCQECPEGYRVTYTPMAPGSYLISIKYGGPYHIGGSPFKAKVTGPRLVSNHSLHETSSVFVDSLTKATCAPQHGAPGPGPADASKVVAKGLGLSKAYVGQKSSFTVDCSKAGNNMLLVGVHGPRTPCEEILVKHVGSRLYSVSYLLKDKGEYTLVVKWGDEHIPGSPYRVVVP

binding result: binds
B1: anti-filamin-A antibody B411 (antibody, human IgG1, kappa, V domains shown)
VH: EVKLVESGGGLVQPGGSLKLSCAASGFTFSSYTMSWVRQTPEKRLEWVAYISNGGGSTYYPDTVKGRFTISRDNAKNTLYLQMSSLKSEDTAMYYCASDGIIRPFAYWGQGTLVTVSA
VL: DIVMTQSHKFMSTSVGDRVSITCKASQDVSLDVAWYQQKPGQSPKLLIYSASHRYTGVPDRFTGSGSGTDFTFTISGVQAEDLAVYFCQQHYSTPLTFGAGTKLELKR
notes: also called B4111
